Assay results published in patent US20020165132A1.

What was measured:
[1] = target: δ receptor (δ-Binding assay, replacement of 3H-naltrindole); experiment: δ-Binding, replacement of 3H-naltrindole (radioligand displacement)
[2] = target: µ-receptor (guinea pig ileum preparation) (guinea pig); experiment: cell-based or functional assay
[3] = target: δ-receptor (mouse vas deferens preparation) (mouse) (UniProt P32300); experiment: cell-based or functional assay
δ-receptor (mouse vas deferens preparation) (mouse), sequence (P32300 whole entry, stated change not applied): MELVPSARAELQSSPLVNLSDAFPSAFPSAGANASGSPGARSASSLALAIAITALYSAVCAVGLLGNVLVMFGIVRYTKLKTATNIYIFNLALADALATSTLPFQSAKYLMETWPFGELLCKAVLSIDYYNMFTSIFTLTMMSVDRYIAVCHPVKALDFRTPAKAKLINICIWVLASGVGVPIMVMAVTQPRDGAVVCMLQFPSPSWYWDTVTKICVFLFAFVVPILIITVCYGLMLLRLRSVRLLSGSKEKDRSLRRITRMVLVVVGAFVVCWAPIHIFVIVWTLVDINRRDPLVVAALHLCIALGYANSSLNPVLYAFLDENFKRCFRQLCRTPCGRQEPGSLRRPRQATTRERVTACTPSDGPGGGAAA

IC50 [1]	GPI IC50 [2]	MVD IC50 [3]	Substance
–	3.06 nM	–	Tyr-c[D-Cys-Gly-Phe-L-Cys]-OH (peptide)
–	1.51 nM	–	Tyr-c[D-Cys-Gly-Phe-L-Cys]-NH2 (peptide)
7 nM	–	–	Tyr-c[D-AlaL-Gly-Phe-L-AlaL]-NH2 (peptide)

Second part, the substance before the results:

Substance	IC50 [1]	GPI IC50 [2]	MVD IC50 [3]
Tyr-c[D-AlaL-Gly-Phe-L-AlaL]-OH (peptide)	1 nM	–	–
Tyr-c[D-Cys-Gly-Phe-D-Cys]-NH2 (peptide)	–	0.78 nM	–
Tyr-c[D-Pen-Gly-Phe-D-Pen]-OH (peptide)	–	7300 nM	4.1 nM
